Experimental findings from patent US20220354929A1, “PEPTIDES AND USES THEREOF” (LATERAL IP PTY LTD, priority 2019, published 2022) are described below.

Experiment [1] has as its system dorsal root afferent-mediated synaptic inputs to dorsal horn neurones. As to the kind of experiment: whole-cell recording in spinal cord slices from Chung models: dorsal root afferent-mediated synaptic inputs (evoked EPSPs/IPSPs). The class given is cell-based, rat. The note with it: for effect on dorsal root-evoked IPSPs (in words): prolactin 500 nM, 0.1 Hz and 5 Hz. The procedure:
(§1) An in vitro spinal cord slice with intact dorsal root afferents combined with single-cell whole-cell patch clamp electrophysiological recording techniques was used to assess the electrophysiological properties of the peptides having the amino acid sequence of SEQ ID NO:2, 3, 4 and 5.
(§2) Chung model rats, aged 8 to 12 weeks, were housed in an air-conditioned room on a 12 hour light/dark cycle with food and water available ad libitum. The rats were terminally anaesthetized using isofluorane and decapitated. The vertebral column, rib cage and surrounding tissues were rapidly removed and pinned under ice-cold (<4° C.), high sucrose-containing artificial cerebrospinal fluid (aCSF) comprising: 127 mM sucrose, 1.9 mM KCl, 1.2 mM KH2PO4, 0.24 mM CaCl2, 3.9 mM MgCl2, 26 mM NaHCO3, 10 mM D-glucose and 0.5 mM ascorbic acid. A laminectomy was performed and the spinal cord and associated roots gently dissected and teased out of the spinal column and surrounding tissues. Dura and pia mater and ventral roots were subsequently removed with fine forceps and the spinal cord hemisected. Care was taken to ensure dorsal root inputs to the spinal cord were maintained. The hemisected spinal cord-dorsal root preparations were secured to a tissue slicer and spinal cord slices (400 to 450 μm thick) with dorsal roots attached were cut in chilled (<4° C.) high sucrose aCSF using a Leica VT1000s microtome.
(§3) Slices were transferred to a small beaker containing ice cold aCSF with 127 mM NaCl, 1.9 mM KCl, 1.2 mM KH2PO4, 1.3 mM MgCl2, 2.4 mM CaCl2, 26 mM NaHCO3 and 10 mM D-glucose, and rapidly warmed to 35° C. ±1° C. in a temperature-controlled water bath over a 20 minute period, then subsequently removed and maintained at room temperature (22° C. ±2° C.) prior to electrophysiological recording. Electrophysiological recording was performed in aCSF comprising 127 mM NaCl, 1.9 mM KCl, 1.2 mM KH2PO4, 1.3 mM MgCl2, 2.4 mM CaCl2, 26 mM NaHCO3 and 10 mM D-glucose.
Whole-cell recordings were performed at 34-35° C. from Lamina I or II neurones in the dorsal horn of the spinal cord slices using Axopatch 1D and/or Multiclamp 700B amplifies and using the “blind” version of the patch-clamp technique.
Patch pipettes were pulled from thin-walled borosilicate glass with resistances of between 3 and 8 MS2 when filled with intracellular solution (140 mM potassium gluconate, 10 mM KCl, 1 mM EGTA-Na, 10 mM HEPES, 4 mM Na2ATP, 0.3 mM Na-GTP). The peptides of SEQ ID NOs:2, 3, 4 or 5 (LAT7771, LAT7772, LAT7773 or LAT7774) were diluted in the tissue bath at a concentration of 5 μM.
A concentric bipolar stimulating electrode was placed appropriately either on the dorsal root or dorsal root entry zone to evoke postsynaptic potentials/currents in recorded cells (see FIG. 1). […] EPSPs/EPSCs were confirmed as monosynaptic on the basis of being characterised by a constant latency and rise-time with few failures.
Recordings were monitored on an oscilloscope and stored on digital audio tapes for later off-line analysis. In addition, data were low-pass filtered at 2-5 kHz, (1 kHz for voltage-clamp data), digitized at 2-10 kHz and stored on a PC running pCLAMP 10 data acquisition software (Axon Instruments). Analysis of electrophysiological data was carried out using Clampfit 10 software.

The test system of the next experiment is dorsal horn neurones. Put plainly: whole-cell patch clamp recording in spinal cord slices from Chung models of neuropathic pain: membrane properties of dorsal horn neurones. It is filed as cell-based, rat. The note with it: for ΔVm, change in membrane potential: prolactin 500 nM vs rest.
Text: as §1
The spinal nerve ligation model (Chung model) was first reported by Kim and Chung (1992; Pain, 50(3):355-63) and involves a single tight ligation of the L5 spinal nerve. […] This model has been used as a “gold standard” model for assessing the efficacy of novel compounds targeting neuropathic pain.
Adult male Sprague-Dawley rats, 8-9 weeks old, weighing 220-250 g at the time of surgery, were purchased from Charles River UK Ltd. The animals were housed in groups of 4 in an air-conditioned room on a 12-hour light/dark cycle. Food and water were available ad libitum. They were allowed to acclimatise to the experimental environment for three days by leaving them on a raised metal mesh for at least 40 min. The baseline paw withdrawal threshold (PWT) was examined using a series of graduated von Frey hairs for 3 consecutive days before surgery and re-assessed on the 6th to 8th day after surgery and on the 12th to 14th day after surgery before drug dosing. Each rat was anaesthetized with 5% isoflurane mixed with oxygen (2L per min) followed by an intramuscular (i.m.) injection of ketamine 90 mg/kg plus xylazine 10 mg/kg. The back was shaved and sterilized with povidone-iodine. The animal was placed in a prone position and a para-medial incision was made on the skin covering the L4-6 level. The L5 spinal nerve was carefully isolated and tightly ligated with 6/0 silk suture. The wound was then closed in layers after a complete hemostasis. A single dose of antibiotics (Amoxipen, 15 mg/rat, i.p.) was routinely given for prevention of infection after surgery. The animals were placed in a temperature-controlled recovery chamber until fully awake before being returned to their home cages.
as §2, §3
Whole-cell recordings were performed at 34-35° C. from Lamina I or II neurones in the dorsal horn of the spinal cord slices using Axopatch 1D and/or Multiclamp 700B amplifies and using the “blind” version of the patch-clamp technique. […]
In general terms: The patch-clamp technique gives a direct electrical read-out from membranes.

Setting [2] is: peptide 5 μM, responding neurones.
[3] abbreviates: prolactin 500 nM, control = 100.

“And” between values parts separate entries of the source, which are not always exact repeats. Equal entries are not always repeated. “Also recorded” adds a separate entry of the source.

For the molecule CRIIHNNNCG [LAT7772], the “effect on dorsal root-evoked EPSPs / excitatory synaptic transmission (in words)” value in experiment [1] (peptide 5 μM, dorsal root stimulation 0.1 Hz) is reported as “suppressed dorsal root-evoked excitatory posts-synaptic potentials (EPSPs) in all neurones tested; also recorded: suppressive effect on EPSPs; also recorded: suppressed dorsal root afferent-mediated excitatory synaptic transmission”. Besides, in the experiment on dorsal horn neurones (peptide 5 μM), the “effect on membrane potential / postsynaptic membrane properties (in words)” value is “overall had little effect on membrane potential; also recorded: small membrane depolarisation in 2 neurones; also recorded: both membrane depolarisations and hyperpolarisations; also recorded: hyperpolarisation”; the “effect on neuronal input resistance (in words)” value was “decrease in neuronal input resistance in all 5 neurones; also recorded: significant decrease in neuronal input resistance; also recorded: reduction in neuronal input resistance”; the “neuronal input resistance, of control” value was 60.1±12.3 % of control. In the experiment with dorsal horn neurones (peptide 5 μM vs control), the “change in neuronal input resistance” value was 149.1±81.7 MS2. Moreover, the “ΔIR, change in neuronal input resistance” value in the experiment with dorsal horn neurones (peptide 5 μM vs control, table prints control minus drug, text the magnitude) is on record as 149.1 MΩ. Also, in the experiment on dorsal horn neurones (peptide 5 μM, all cells), the “Input Resistance, mean in presence of peptide” value amounted to 172.3 MΩ and the “neuronal input resistance in the presence of peptide” value is reported as 172.3±33.2 MS2. In addition, the “Membrane Potential, mean in presence of peptide” value in the experiment with dorsal horn neurones (peptide 5 μM, all cells, ipsilateral to injury) is −58.7±4.8 mV and −58.7 mV. Further, in the experiment on dorsal horn neurones (peptide 5 μM, control = 100), the “Normalised Input Resistance, mean in presence of peptide” value is listed as 60.1 and the “Normalised Input Resistance, ΔIR” value was determined as 39.9. The “reversal potential of peptide-induced response (intersection of VI relations)” value in the experiment on dorsal horn neurones (peptide 5 μM, individual neurones) was “around −78 mV and ~−55 mV and −100 mV and −60 mV and around −60 mV”. In the experiment on dorsal horn neurones (setting [2]), the “membrane depolarisation in individual neurones” value was 12.7 mV; the “membrane hyperpolarisation in individual neurones” value was 3.5 mV and 9.9 mV. Moreover, in the experiment with dorsal horn neurones (peptide 5 μM, rest = 100), the “Normalised Membrane Potential, mean in presence of peptide” value is given as 98.6 and the “Normalised Membrane Potential, ΔVm” value turned out to be 1.4.

B1: Prolactin: native prolactin peptide (e.g., human prolactin of SEQ ID NO:30); parent prolactin protein (protein)
chain: MNIKGSPWKGSLLLLLVSNLLLCQSVAPLPICPGGAARCQVTLRDLFDRAVVLSHYIHNLSSEMFSEFDKRYTHGRGFITKAINSCHTSSLATPEDKEQAQQMNQKDFLSLIVSILRSWNEPLYHLVTEVRGMQEAPEAILSKAVEIEEQTKRLLEGMELIVSQVHPETKENEIYPVWSGLPSLQMADEESRLSAYYNLLHCLRRDSHKIDNYLKLLKCRIIHNNNC
Consider B1, for which the “effect on dorsal root-evoked IPSPs (in words)” value in experiment [1] is recorded as “no effect on IPSPs evoked by dorsal root stimulation in one cell”. In experiment [1] (listed as prolactin), the “effect on dorsal root-evoked IPSPs (in words)” value was “little effect on dorsal root stimulated inhibitory post-synaptic potentials (IPSPs)”. In the experiment on dorsal horn neurones (prolactin 500 nM), the “Input Resistance, mean in presence of prolactin” value is recorded as 637.3 MΩ; the “effect on membrane potential (in words)” value is “principally induced membrane depolarisation”; the “effect on neuronal input resistance (in words)” value is reported as “increase in neuronal input resistance”; the “neuronal input resistance in the presence of prolactin” value stood at 637.3±301.1 MS2. In the experiment on dorsal horn neurones (prolactin 500 nM vs control), the “increase in neuronal input resistance” value was 79.0±60.5 MS2 and the “ΔIR, change in neuronal input resistance” value is listed as −79.0 MΩ. Also, the “ΔVm, change in membrane potential” value in the experiment on dorsal horn neurones is −2.8 mV. In addition, in the experiment on dorsal horn neurones (listed as prolactin), the “ΔVm, change in membrane potential” value was found to be 2.8±2.0 mV. In addition, the “Membrane Potential, mean in presence of prolactin” value in the experiment on dorsal horn neurones (prolactin 500 nM, all cells) was −52.0 mV. The “Membrane Potential, mean in presence of prolactin” value in the experiment on dorsal horn neurones (prolactin 500 nM, all cells, listed as prolactin) is −52.0±8.4 mV. In addition, in the experiment with dorsal horn neurones (setting [3]), the “Normalised Input Resistance, mean in presence of prolactin” value is reported as 113.9 and the “Normalised Input Resistance, ΔIR” value is on record as −13.9. Moreover, the “effect on membrane potential (in words)” value in the experiment with dorsal horn neurones (prolactin 500 nM, listed as prolactin) was “small membrane depolarisation in 2 neurones; also recorded: little effect on a further dorsal horn neurone; also recorded: marginal membrane depolarisation”. In the experiment with dorsal horn neurones (prolactin 500 nM, one cell), the “reversal potential of prolactin-induced depolarisation (VI relations)” value is reported as “around −90 mV”. In the experiment with dorsal horn neurones (prolactin 500 nM, rest = 100), the “Normalised Membrane Potential, mean in presence of prolactin” value came out at 95.8 and the “Normalised Membrane Potential, ΔVm” value is reported as 4.2.
